From patent EP1234033B1

Biological target: FGF receptor-3c on human osteosarcoma cell line (ATCC, CRL 1543) (human) (UniProt P22607)
Test: cell-based or functional assay

Sequence of UniProt P22607 (P22607 23-806): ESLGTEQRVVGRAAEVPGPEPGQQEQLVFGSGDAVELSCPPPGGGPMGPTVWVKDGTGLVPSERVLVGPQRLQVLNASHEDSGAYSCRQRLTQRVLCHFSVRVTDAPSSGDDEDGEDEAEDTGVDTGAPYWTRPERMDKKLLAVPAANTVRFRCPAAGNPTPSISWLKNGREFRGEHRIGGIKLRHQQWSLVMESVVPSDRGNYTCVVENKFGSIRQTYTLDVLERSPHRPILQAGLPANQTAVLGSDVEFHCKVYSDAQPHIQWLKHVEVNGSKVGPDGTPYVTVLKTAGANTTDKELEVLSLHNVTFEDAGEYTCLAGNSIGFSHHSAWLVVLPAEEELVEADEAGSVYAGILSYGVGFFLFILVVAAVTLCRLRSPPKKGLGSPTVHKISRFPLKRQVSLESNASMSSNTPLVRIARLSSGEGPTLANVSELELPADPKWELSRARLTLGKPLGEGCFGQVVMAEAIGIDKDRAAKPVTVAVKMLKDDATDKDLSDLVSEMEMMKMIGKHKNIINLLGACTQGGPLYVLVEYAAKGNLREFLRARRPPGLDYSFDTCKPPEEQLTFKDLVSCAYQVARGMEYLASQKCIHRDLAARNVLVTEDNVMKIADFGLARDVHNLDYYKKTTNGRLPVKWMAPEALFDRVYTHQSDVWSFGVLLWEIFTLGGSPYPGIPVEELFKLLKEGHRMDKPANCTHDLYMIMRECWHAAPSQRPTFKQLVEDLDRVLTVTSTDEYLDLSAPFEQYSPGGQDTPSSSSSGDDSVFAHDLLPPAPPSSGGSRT

FGF-18-saporin conjugate
LD50 (sensitivity of cell line to the FGF-18-saporin conjugate): < 1 nM
